Consider 6 molecules from EP4768503A1 (Keymed Biosciences (Chengdu) Co., Ltd., dated 2026).

Changes are numbered by the printed parent chain. Where no end group is shown, it is not given here. [ ]: non-standard residue; d: D form. pGlu = O=C1CC[C@@H](C(=O)O)N1

Broadly, the Kd is the free concentration of one partner at which half of the binding sites on the other are occupied at equilibrium, for simple one-to-one binding. A low value points to a tighter complex. As a reminder, the koff is the first-order rate constant of dissociation. Lower therefore signals a long-lived complex. A word on the kon: it is the second-order rate constant of association. A lower kon goes with slow association.

Experiment [1] addresses T1, Aβ1-42 protofibril (human).
T1 construct: also called amyloid protofibril
The experiment can be described thus: SPR (Biacore T200), protofibril on CM5 chip, antibody as analyte. A general note: Surface plasmon resonance follows binding to a sensor surface in real time, without labels.

The target in another experiment is T2, Aβ1-42 monomer (human).
T2 construct: Preparation of the monomer is not described
The experiment can be described thus: graded binding, chimeric antibody (assay not named; ELISA in Example 1). Background: ELISA stands for enzyme-linked immunosorbent assay.

For a further experiment, the target named is T3, pyroE Aβ3-42 peptide (human, pyroglutamate derived from glutamic acid at the third amino acid position of Aβ (N-terminus of the peptide)).
T3 construct: Synthetic peptide; It lacks the first two N-terminal residues of Aβ; also called pyroglutamate-modified β-amyloid
The description is as above.

In experiment [2] the target is T1, Aβ1-42 protofibril. The experiment is described as above.
Experiment [3] has as its target T4, pyroE Aβ3-16-biotin polypeptide (human, also: biotin, position not given here).
T4 peptide: [pGlu]FRHDSGYEVHHQK
The experiment can be described thus: SPR (Biacore T200), biotinylated peptide on SA chip, antibody as analyte; antigen channel not given.

T1 sequence (peptide, as listed by the source): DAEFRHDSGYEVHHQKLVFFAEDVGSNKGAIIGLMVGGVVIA
T3 sequence (peptide, as listed by the source): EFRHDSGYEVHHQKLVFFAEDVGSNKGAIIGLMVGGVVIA

B1: 6B5 (antibody, V domains shown)
VH: EVQLQQSGAELVKPGASVKLSCKASGYTFTTYWMHWVKQRPGQGLEWIGEIDPSDSYTNYNQKFKGKATLTVDKSSSTAYMQLSSLTSEDSAVYYCARSFHGNFFVYWGQGTLVTVSA
VL: QIVLTQSPAIMSASPGEKVTITCSASSSVSYMHWFQQKPGTSPKLWIYSTSNLASGVPARFSGSGSGTSYSLTISRMEAEDAATYYCQQRSSYPLTFGAGTKLELK
notes: Chimeric (parent) antibody; the constant region of the chimeric form is not specified
Consider B1, for which, in the experiment with Aβ1-42 protofibril [1], the Kd came out at 1710 pM, the koff is 0.00196 s⁻¹ and the kon amounted to 1.15e+06 M⁻¹ s⁻¹. The binding result with Aβ1-42 monomer is on record as “binds”. Moreover, in the experiment with pyroE Aβ3-42 peptide, the binding result is reported as “binds”.

B2: 11G10 (antibody, V domains shown)
VH: B1 VH with L11I, T31S, S84R, F104L
VL: B1 VL with S55T, L105I
notes: Chimeric antibody; the constant region of the chimeric form is not specified
For B2, the binding result with Aβ1-42 monomer, in the experiment with Aβ1-42 protofibril [2] and with pyroE Aβ3-42 peptide was “binds” throughout.

B3: 6C9 (antibody, V domains shown)
VH: B1 VH with E1Q, T31N, W33Y, M34V, T58S
VL: B1 VL with P15L, K18E, V19I, I21L, L95P, A99G, L105I
notes: as for B2
As to B3, the binding result with Aβ1-42 monomer, with Aβ1-42 protofibril [2] and with pyroE Aβ3-42 peptide was “binds” each time.

B4: 200O1 (antibody, V domains shown)
VH: QVQLKESGPGLVAPSQSLSITCTVSGFSLSRYIVHWYRQPPGKGLEWLGMIWGGGRIDYNSALKSRLSISKDNSKSQVFLKMNSLQTDDTAMYYCARNFGENAEAYWGQGTLVTVSA
VL: DIQMTQTTSSLSASLGDRVTITCRASQDINIYLNWYQQKPDGVVKLLIYYTSRLHSGVPSRFSGSGSGTDFSLTISNLEQEDIATYFCQQGHTLPYTFGGGTKLEIK
notes: Chimeric (parent) antibody; the constant region of the chimeric form is not specified; also called 20001
In experiment [3], B4 had a Kd of 0.0716 pM, a koff of 5.44e-08 s⁻¹ and a kon of 760000 M⁻¹ s⁻¹. For the same molecule, the binding result with pyroE Aβ3-42 peptide was “binds”.

B5: 151N5 (antibody, V domains shown)
VH: EVQLVESGGGLVKPGGSLKLSCAASGFTFSDFYMYWVRQTPEKRLEWVATISDGGRYTYYPDRLKGRFTISRNIAKNNLYLQMSSLKSEDTAMYYCARGRSTMITTTRNYFALDYWGQGTSVTVSS
VL: DIQMTQSSSSFSVSLGDRVTITCKASEDIYNRLAWYQQKPGDAPRLLISGAIRLETGVPSRFSGSGSGKDYTLSITSLQTEDGATYYCQQYWRTPLTFGAGIKLELK
notes: as for B1
In experiment [3], B5 gave a Kd of 291 pM, a koff of 0.000319 s⁻¹ and a kon of 1.1e+06 M⁻¹ s⁻¹. Also, the binding result with pyroE Aβ3-42 peptide is “binds”.

B6: 174J17 (antibody, V domains shown)
VH: B5 VH with F29L, F32Y, R63S, L64V, N73D, L81I, K87R, F111L
VL: DIQMTQSSSSFSVSVGDRVTVTCKASEDIYNRLAWYQQRPGNAPRLLISGATSLETGVPSRFSGSGSGKDYILSITSLQTEDVGTYYCQQYWRTPLTFGEGTKLELK
notes: as for B2
Turning to B6, the binding result in the experiment with pyroE Aβ3-42 peptide is given as “binds”.
